# Data published in patent US6294153A, “Aerosol pharmaceutical formulation for pulmonary and nasal delivery” (Generex Pharmaceuticals, Inc., priority 1999, dated 2001).
# Like-named read-outs stand apart in the source and are kept apart here.
# Tests used:
# [1] = healthy volunteers; 10, 20, 30 units aerosol
# Source text: Day-1: 5 puffs of 2 units each (total 10 units)
# Day-2: 5 puffs of 4 units each (total 20 units)
# Day-1: 5 puffs of 6 units each (total 30 units)
# [2] = Method: The vials were then charged with a non-CFC tetrafluoroethane, (134a) propellant with the aid of a Pamasol 2008 semi-automatic gas filling equipment.
# The aerodynamic particle size was determined by 8-stage USP Anderson Cascade Impactor-Mark-II (trade mark). The Multistage Cascade Impactor was cleaned with methanol and air-dried at 30° C. Glass fibre filters were placed on the collection plates. Seals were aligned properly and the actuator was attached to the mouthpiece and assembled onto the USP induction port and jet stages. A vacuum pump was connected and air flow rate is set to 28.3 liter/min. The vial was primed by shaking for 10 seconds and actuating twice to waste. […] […] The filters were carefully removed and placed in scintillation vials and sonicated for 15 minutes.
# [3] = stage 3, U400, 4 units/actuation
# [4] = stage 4, U400, 4 units/actuation
# [5] = stage 5, U400, 4 units/actuation
# [6] = stage 6, U400, 4 units/actuation
# [7] = stage 7, U400, 4 units/actuation
# [8] = stage 8, U400, 4 units/actuation
substance,measurement,setting,value
insulin,absorption of insulin through lungs and oropharynx regions,[1],significant absorption
same,size of most particles,"[2]; cascade impactor, most particles",smaller than 6 microns
same,particle size (conclusion),"[2]; cascade impactor, overall",about 3 microns
same,"droplet size, generally","[2]; cascade impactor, indicates deep lung deposition",smaller than 4 microns
same,mg (insulin deposited),"[2]; stage 3, 2 units/actuation",0.77 mg
same,units (insulin deposited),"[2]; stage 3, 2 units/actuation",10.1 units
same,mg (insulin deposited),[2]; [3],0.77 mg
same,units (insulin deposited),[2]; [3],20.1 units
same,mg (insulin deposited),"[2]; stage 4, 2 units/actuation",0.78 mg
same,units (insulin deposited),"[2]; stage 4, 2 units/actuation",10.1 units
same,mg (insulin deposited),[2]; [4],0.78 mg
same,units (insulin deposited),[2]; [4],20.1 units
same,mg (insulin deposited),"[2]; stage 5, 2 units/actuation",0.81 mg
same,units (insulin deposited),"[2]; stage 5, 2 units/actuation",10.0 units
same,mg (insulin deposited),[2]; [5],0.81 mg
same,units (insulin deposited),[2]; [5],20.0 units
same,mg (insulin deposited),"[2]; stage 6, 2 units/actuation",0.80 mg
same,units (insulin deposited),"[2]; stage 6, 2 units/actuation",10.3 units
same,mg (insulin deposited),[2]; [6],0.80 mg
same,units (insulin deposited),[2]; [6],20.3 units
same,mg (insulin deposited),"[2]; stage 7, 2 units/actuation",0.80 mg
same,units (insulin deposited),"[2]; stage 7, 2 units/actuation",10.1 units
same,mg (insulin deposited),[2]; [7],0.80 mg
same,units (insulin deposited),[2]; [7],20.1 units
same,mg (insulin deposited),"[2]; stage 8, 2 units/actuation",0.79 mg
same,units (insulin deposited),"[2]; stage 8, 2 units/actuation",10.1 units
same,mg (insulin deposited),[2]; [8],0.79 mg
same,units (insulin deposited),[2]; [8],20.1 units
same,insulin deposition,[2]; stages 0-2,no insulin deposition
